Assay results: patent US20240026024A1 (SHANGHAI HUAOTA BIOPHARMACEUTICAL, published 2024)
Read-outs that look alike come from different tables or passages of the source.

T1: human CD73 on the cell surface (human, UniProt P21589 27-549)
T1 sequence: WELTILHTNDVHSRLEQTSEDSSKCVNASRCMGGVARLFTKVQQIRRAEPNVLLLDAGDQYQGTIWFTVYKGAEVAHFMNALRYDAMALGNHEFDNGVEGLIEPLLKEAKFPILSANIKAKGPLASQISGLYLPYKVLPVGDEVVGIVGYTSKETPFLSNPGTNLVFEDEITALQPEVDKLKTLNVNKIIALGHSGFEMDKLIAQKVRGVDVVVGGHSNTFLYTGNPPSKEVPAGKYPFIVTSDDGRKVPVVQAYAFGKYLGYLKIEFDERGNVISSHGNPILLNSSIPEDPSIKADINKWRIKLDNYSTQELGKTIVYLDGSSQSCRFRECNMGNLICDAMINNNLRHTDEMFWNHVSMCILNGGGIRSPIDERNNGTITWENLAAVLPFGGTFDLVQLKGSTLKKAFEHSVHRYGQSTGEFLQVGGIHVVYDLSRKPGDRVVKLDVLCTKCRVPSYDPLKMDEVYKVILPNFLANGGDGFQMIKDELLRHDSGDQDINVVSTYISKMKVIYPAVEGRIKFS


Key:
[1] = molecular target: T1, human CD73 on the cell surface; test: cell-based or functional assay
[2] = molecular target: T1, human CD73 on the cell surface; test: flow cytometry on CHOK1-huCD73-3F4 cells, PE anti-human Fc
Method: (§1) All the antigen-binding proteins were diluted to 30 μg/ml with PBS solution containing 1% BSA (1% BSA/PBS), diluted at 3-fold into 11 gradients and then added to a 96-well U-shaped plate at 20 μL/well, and negative control (1% BSA/PBS was added only) was set up simultaneously. The suspension of human CD73-expressing cells (CHOK1-huCD73-3F4, Huabo Biopharm) in the logarithmic growth phase were collected and centrifuged at 1000 rpm for 5 min, and the culture medium was discarded; then the cells were resuspended with 1% BSA/PBS to a viable cell density of 1×10⁶/mL, and then added into the 96-well U-shaped plate already added with anti-CD73 antigen-binding protein at 20 μL (2×10⁴ cells)/well for reaction at room temperature for 30 min. […] After the reaction, the cells in the 96-well U-shaped plate were resuspended with 1% BSA/PBS and centrifuged at 300 g for 3 min and the supernatant was discarded; after washing in this manner 3 times, and the cells were finally resuspended with 1% BSA/PBS at 100 μL/well, and the fluorescence intensity of the PE channel was measured with a flow cytometer (BD, #Canto II).

[3] = molecular target: T1, human CD73 on the cell surface; test: as above; remark: listed apart in the source
Method: as §1

[4] = molecular target: T1, human CD73 on the cell surface; test: cell-based or functional assay; remark: listed apart in the source
[5] = molecular target: T1, human CD73 on the cell surface; test: cell-based or functional assay; remark: listed apart in the source

Endocytosis efficiency (%) [1] | EC50 [2] | EC50 [3] | EC50(µg/mL), inhibition of enzyme activity of CD73 on CHOK1-huCD73-3F4 cells [4] | EC50(µg/mL), inhibition of enzyme activity of CD73 on CHOK1-huCD73-3F4 cells [5] | Binder
78.8% | 0.347 µg/mL | 0.426 µg/mL | 1.85 µg/mL | 0.944 µg/mL | 900581 (antibody, human IgG1, V domains shown) VH: EVQLVESGGGLVKPGGSLKLSCAASGFTFSKYAMSWVRQSPEKRLEWVAEISSGGGYINYPDTVTGRFTISRDNAKNTLYLEMSSLRSGDTAMYYCARAIYYYGSSYNYYAMDYWGQGTSVTVSS VL: DIVMTQSHKFMSTSVGDRVSITCKASQDVGTAEAWYQQKPGQSPKLLIYWASTRHTGVPDRFTGSGSGTDFTLTIGNVQSEDLADYFCQQYSSYPLTFGGGTKLEIK
 | 0.594 µg/mL |  |  |  | 900695 (antibody, V domains shown, Constant regions are not restated) VH: QVQLVESGGGLVKPGGSLRLSCAASGFTFSKYAMSWVRQAPGKGLEWVAEISSGGGYINYADSVTGRFTISRDNAKNSLYLQMNSLRAEDTAVYYCARAIYYYGSSYNYYAMDYWGQGTTVTVSS VL: DIQMTQSPSSLSASVGDRVTITCRASQDVGTAEAWYQQKPGKAPKLLIYWASTRHTGVPSRFSGSGSGTDFTLTISSLQPEDFATYYCQQYSSYPLTFGQGTKLEIK
98.2% | 0.518 µg/mL |  | 1.97 µg/mL |  | 900697 (antibody, V domains shown, Constant regions are not restated) VH: QVQLVESGGGLVKPGGSLRLSCAASGFTFSKYAMSWVRQAPGKGLEWVAEISSGGGYINYADSVTGRFTISRDNAKNSLYLQMNSLRAEDTAVYYCARAIYYYGSSYNYYAMDYWGQGTTVTVSS VL: DIQMTQSPSSLSASVGDRVTITCRASQDVGTAEAWYQQKPGKAPKLLIYWASTLQSGVPSRFSGSGSGTDFTLTISSLQPEDFATYYCQQYSSYPLTFGQGTKLEIK
 | 0.684 µg/mL |  |  |  | 900696 (antibody, V domains shown, Constant regions are not restated) VH: QVQLVESGGGLVKPGGSLRLSCAASGFTFSKYAMSWIRQAPGKGLEWVAEISSGGGYINYADSVKGRFTISRDNAKNSLYLQMNSLRAEDTAVYYCARAIYYYGSSYNYYAMDYWGQGTTVTVSS VL: DIQMTQSPSSLSASVGDRVTITCRASQDVGTAEAWYQQKPGKAPKLLIYWASTLQSGVPSRFSGSGSGTDFTLTISSLQPEDFATYYCQQYSSYPLTFGQGTKLEIK
96.3% | 0.688 µg/mL |  | 1.43 µg/mL |  | 900698 (antibody, V domains shown, Constant regions are not restated) VH: QVQLVESGGGLVKPGGSLRLSCAASGFTFSKYAMSWIRQAPGKGLEWVAEISSGGGYINYADSVKGRFTISRDNAKNSLYLQMNSLRAEDTAVYYCARAIYYYGSSYNYYAMDYWGQGTTVTVSS VL: DIQMTQSPSSLSASVGDRVTITCRASQDVGTAEAWYQQKPGKAPKLLIYWASTRHTGVPSRFSGSGSGTDFTLTISSLQPEDFATYYCQQYSSYPLTFGQGTKLEIK
